This note sets out measurements from publication PMC9439264.

This experiment addresses HA trimer of A/Beijing/262/1995 (H1N1), thrombin- and trypsin-treated, for the immune complex (Influenza A virus A/Beijing/262/1995 (H1N1)). Put plainly: cryo-EM structure; 12H5 Fab with thrombin- and trypsin-treated BJ/1995 HA trimer.

For orientation: stoichiometry N means a count of units in the complex or per binding partner. For the substance “HA trimer of A/Beijing/262/1995 (H1N1), thrombin- and trypsin-treated, for the immune complex”, the stoichiometry N worked out at 3.
